Measurements published in article PMC3648529 (PLoS ONE, 2013).

Molecular target: T1, biotinylated human soluble TWEAK (human, UniProt O43508, biotin (site not stated))
T1 construct: TWEAK, human, soluble form; Captured on a streptavidin (SA) sensor by its biotin; also called biotinylated TWEAK ligand
Assay: SPR; Biacore 2000, SA sensor, biotinylated human soluble TWEAK coupled at 150 RU; antibody injected at 100 nM, 2 min association, 5 min dissociation at 25 C in HBS-ET (10 mM HEPES pH 7.4, 150 mM NaCl, 1 mM EDTA, 0.05% Tween 20); half-life from kd of the interval 240-300 s
Conditions: both partners purified

T1 sequence (O43508 94-249): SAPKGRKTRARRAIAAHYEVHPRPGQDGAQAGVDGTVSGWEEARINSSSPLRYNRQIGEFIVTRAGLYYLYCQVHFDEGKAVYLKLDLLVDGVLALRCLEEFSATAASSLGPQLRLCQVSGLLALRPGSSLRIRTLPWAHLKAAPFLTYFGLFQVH

B1: chi TW-305 (chimeric rabbit anti-TWEAK monoclonal antibody) (antibody, V domains shown)
VH: QEQLVESGGGLVQPGGSLTLSCKASGFDFSTYYMSWVRQAPGKGLEWIGTVYVRQGTTYYASWLNGRFTISSDNAQNTVDLKMNSLTAADTATYFCAKGGYNYDDAFVIWGPGTLVTVSF
VL: AIEMTQTPFSVSAAVGGTVTINCQASQNIYSNLAWYQQKPGQPPKLLMYTASYLASGVPSRFKGSGSRTEYTLTISGVQCADAATYYCQTAYYNSRPDTVAFGGGTEVVVK
notes: Fab part as the heavy chain of m5 (PDB 4HT1); as the light chain of m5 (PDB 4HT1); Whole antibody from which the Fab m5 was cut; source: produced by standard procedures
- t/2 diss (half-life of immunocomplex): 2.45 h
